Drawing on paper PMC7048138, this text covers DCX molecules per micron (short, smoothly curved microtubule arcs) (molecules per micron), TgDCX molecules per micron of fiber length ("flexible" microtubules) (molecules per micron) and stoichiometry N (TgDCX molecules per tubulin dimer) for one molecule.

This assay deals with microtubules of Xenopus S3 cells stably expressing EGFP-α-tubulin (Xenopus laevis (endogenous in S3 cells); cDNA of the EGFP-tagged copy not stated | Xenopus laevis (endogenous in S3 cells)). The experiment in a line: fluorescence molecule counting on microtubules in cells.

B1: mCherryFP-TgDCX (full-length wild-type TgDCX, mCherryFP at the N-terminus) (natural protein)
chain: MACGIPWKLARRDELMATRQAERPGEYFPPPYPPCPPTVVTPLRTSAYDFPEATFVTRPCLPAKKATGHKNVFERLTDTAYYTGSHRERFDEFGNGRGIAGREYLYAYDGLTESPSRCHEVYSSVIKRPRKPVVTPGTLGIQRFGVQIPAPRLMWLYRNGDKHDDGTPFFVRPYIKSMESLYQQITKEITPIAGPVRRIFDQNFRVITDLDDIVDGAKYLCTSGEPPAAYDRLEKFLSEWVIQKSQTKVPSQFFVV
B1 showed a DCX molecules per micron (short, smoothly curved microtubule arcs) (molecules per micron) of 4850; a TgDCX molecules per micron of fiber length ("flexible" microtubules) (molecules per micron) of 1460; a stoichiometry N (TgDCX molecules per tubulin dimer) of 0.9.
